This is an account of results in EP4556905A1 (Agencia Estatal Consejo Superior De Investigaciones …, dated 2025).

The labels stand for the following.
B3: Human PHOX2B transcription factor fragment comprising 26 alanine residues (XS26) (other)
chain: GPGGPGGEPGKGGAAAAAAAAAAAAAAAAAAAAAAAAAAGGLAAAGGPGQGWAPGPGPITSIPDSLGGPFASVLSSLQRPNGAKAALVKSSMF
notes: C-terminal fragment of human PHOX2B (XS construct, 228-314 in wild-type numbering) with the polyAla tract expanded from 20 to 26 alanines (241-266); Made in E. coli as a thioredoxin-His6-TEV fusion and cleaved with TEV; 15N/13C-labelled for NMR; For microscopy a C315 mutant tagged with ATTO-488 or ATTO-565 was mixed 1:400-1:600 with the unlabelled protein; also called +6 Ala variant; expanded …

Bounds are passed on as bounds.

The target in data set [1] is Human PHOX2B transcription factor fragment comprising 26 alanine residues (XS26) (human) (UniProt Q99453). Description: 13C-HSQC NMR titration, 0.1 mM XS26, 1:1 molar ratio, 25°C.
The target is the same in data set [2]. Description: CACO NMR, 0.225 mM XS26 incubated 48 h at 25°C with 0.45 mM HSP70 (1:2).
Data set [3] deals with the molecule itself. The data set can be described thus: 15N spin relaxation, self-association.
Data set [4] addresses B3. The data set can be described thus: confocal fluorescence microscopy, colocalisation in condensates.
Data set [5] deals with the molecule itself. Description: 15N spin relaxation, overall correlation time, self-association.

Consider “Human HSP72 (named HSP70) (from UniProt P54652 1-639)”, for which, in data set [1], the decrease of NMR signal intensity, polyAla moieties in disordered conformation was greater than 50% and the decrease of NMR signal intensity, polyAla tract in α-helical conformation was less than 20%. This molecule also yielded a decrease of the population of nascent disordered alanines (CACO signal intensity) in data set [2] of 50%.
For “Human HSP90β (named HSP90) (from UniProt P08238 1-724)”, in data set [1], the decrease of NMR signal intensity, polyAla moieties in disordered conformation was greater than 50% and the decrease of NMR signal intensity, polyAla tract in α-helical conformation was less than 40%.

B1: Human PHOX2B transcription factor fragment comprising 23 alanine residues (XS23) (other)
chain: GPGGPGGEPGKGGAAAAAAAAAAAAAAAAAAAAAAAGGLAAAGGPGQGWAPGPGPITSIPDSLGGPFASVLSSLQRPNGAKAALVKSSMF
notes: XS fragment of human PHOX2B with the polyAla tract expanded from 20 to 23 alanines; Made as a thioredoxin-His6-TEV fusion and cleaved with TEV; also called +3 Ala variant
For the molecule B1, the binding result in data set [3] is reported as “binds”.

B2: Human PHOX2B transcription factor fragment comprising 20 alanine residues (XS20) (other)
chain: GPGGPGGEPGKGGAAAAAAAAAAAAAAAAAAAAGGLAAAGGPGQGWAPGPGPITSIPDSLGGPFASVLSSLQRPNGAKAALVKSSMF
notes: Fragment of residues 228-314 of human PHOX2B, polyAla tract at 241-260; Made as a thioredoxin-His6-TEV fusion and cleaved with TEV; For microscopy a C315 mutant tagged with ATTO-488 or ATTO-565 was mixed 1:400-1:600 with the unlabelled protein; also called wild type PHOX2B fragment; wt PHOX2B (20 alanines)
Take B2: the binding result in data set [4] and in data set [5] was “binds” each time.
Regarding B3, in data set [3], the binding result was “binds”.
